Earlier results in publication PMC12287344.

Target: caspase-1 (Homo sapiens) (UniProt P29466)

Kd: 110 µM
Substance: caspase-1 (from UniProt P29466)
